According to publication PMC7472727, “Novel Escherichia coli RNA Polymerase Binding Protein Encoded by Bacteriophage T5”:

Target: RNAP holoenzyme with [211Cys-TMR] sigma70 (RNAP beacon);gpT5.026 (Escherichia coli;Escherichia phage T5, UniProt P0A7Z4;P0A8V2;P0A8T7;P0A800;P00579;Q6QGR1 1-329;1-1342;1-1407;2-91;1-613;1-153, S211C|)
Assay: fluorescence RNAP beacon titration; 100 nM gpT5.026 preincubated 15 min; 40 mM Tris-HCl pH 8.0, 100 mM NaCl, 5% glycerol, 1 mM DTT, 10 mM MgCl2, 0.02% Tween 20, 25 C; 1 nM labeled RNAP holoenzyme
Details: protein: recombinant;recombinant; chain copies: 2;1;1;1;1;1

B1: [-38/-12] upstream double-stranded probe (dsDNA)
DNA 1: TATTTGACATCAGGAAAATTTTTTGGT
DNA 2: ACCAAAAAATTTTCCTGATGTCAAATA
With B1 the binding signal was ~3 fold higher affinity than without gpT5.026.
